Experiment [1] has as its target T1, human TrkA receptor on the cell surface (human, UniProt P04629 33-796). As to the kind of experiment: flow cytometry on TF-1 cells, control immunoglobulin.
Experiment [2] has as its target T2, TrkA-IgG (UniProt P04629 33-423, limits assumed).
T2 construct: also called specific antigen TrkA-IgG; not shown: IgG part of the fusion
As to the kind of experiment: SPR (BIACORE 2000), TrkA-IgG immobilised on CM-5 chip, 'separated 1:1' fit. How it is done: Surface plasmon resonance analysis was used to measure the association and dissociation rate constants for binding kinetics of the different antibodies (murine, chimeric, 5 humanised variants) towards TrkA-IgG using BIACORE 2000 (Biacore AB, Uppsala, Sweden). TrkA-IgG was immobilised on a CM-5 sensor chip according to manufacturer's conditions, in a way to achieve an immobilization density of 1100 RU. Each antibody sample was analyzed in antibody concentration ranges of 20-0.63 μg/ml. Calculations from the sensograms were performed by using the BIA evaluation version 3 (1999) software.
Analysis of the individual sets of sensograms was performed with the BIA evaluation version 3 (1999) software. Among the different models tested to fit the kinetics data, the best fitting was obtained with the “separated 1:1” algorithm. In this model, only a defined range of the early association and dissociation curves was used for the calculation.
A general note: In SPR one partner is held on a chip, and binding of the other changes the refractive index at the surface.

Experiment [3] concerns the target T1, human TrkA receptor on the cell surface. As to the kind of experiment: cell-based or functional assay.
Experiment [4] shares this target. Description: flow cytometry on TF-1 cells, 4 µg/ml. Further details: Geo Mean Fluorescence: reference not given here. In general terms: In flow cytometry, cells or beads pass a laser one at a time.
For experiment [5], the target named is T2, TrkA-IgG. As to the kind of experiment: SPR (BIACORE 2000), TrkA-IgG immobilised on CM-5 chip, 'separated 1:1' fit; separate experiment.

As a reminder, the Kd is the equilibrium constant for the complex coming apart. By koff is commonly meant the first-order rate constant of dissociation. Broadly, the kon is the rate constant with which the complex forms.

T2 sequence (P04629 33-423 limits assumed): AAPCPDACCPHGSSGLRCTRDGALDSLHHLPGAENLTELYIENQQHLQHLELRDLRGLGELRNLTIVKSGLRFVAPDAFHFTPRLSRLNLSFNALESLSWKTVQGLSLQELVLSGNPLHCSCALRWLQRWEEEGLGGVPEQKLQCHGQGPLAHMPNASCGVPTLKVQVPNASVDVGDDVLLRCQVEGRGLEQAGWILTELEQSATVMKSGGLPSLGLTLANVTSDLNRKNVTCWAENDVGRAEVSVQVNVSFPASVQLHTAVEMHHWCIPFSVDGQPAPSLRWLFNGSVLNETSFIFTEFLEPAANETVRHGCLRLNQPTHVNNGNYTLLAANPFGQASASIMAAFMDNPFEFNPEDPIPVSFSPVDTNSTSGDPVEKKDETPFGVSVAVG
T1 sequence (P04629 33-796): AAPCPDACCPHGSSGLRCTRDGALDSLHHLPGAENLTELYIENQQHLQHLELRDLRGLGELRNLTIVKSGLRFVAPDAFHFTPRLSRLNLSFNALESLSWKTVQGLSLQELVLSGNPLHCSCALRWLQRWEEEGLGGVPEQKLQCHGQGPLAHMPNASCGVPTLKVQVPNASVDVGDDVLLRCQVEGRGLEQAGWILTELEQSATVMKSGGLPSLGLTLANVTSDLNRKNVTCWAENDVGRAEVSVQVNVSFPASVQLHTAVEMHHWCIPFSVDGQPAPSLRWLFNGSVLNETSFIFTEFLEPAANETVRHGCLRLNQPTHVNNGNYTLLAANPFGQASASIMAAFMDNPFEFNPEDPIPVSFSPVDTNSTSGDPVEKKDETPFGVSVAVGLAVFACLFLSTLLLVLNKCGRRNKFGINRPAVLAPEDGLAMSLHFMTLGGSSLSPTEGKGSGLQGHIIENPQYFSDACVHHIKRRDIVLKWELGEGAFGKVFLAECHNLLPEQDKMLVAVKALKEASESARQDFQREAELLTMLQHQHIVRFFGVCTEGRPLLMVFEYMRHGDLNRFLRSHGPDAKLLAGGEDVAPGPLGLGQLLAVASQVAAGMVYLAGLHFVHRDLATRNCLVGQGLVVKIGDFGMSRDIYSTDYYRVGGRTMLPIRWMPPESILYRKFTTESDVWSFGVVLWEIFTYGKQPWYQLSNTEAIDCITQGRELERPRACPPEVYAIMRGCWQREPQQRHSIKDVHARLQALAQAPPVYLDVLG

Regarding Human IgG1 standard control (antibody), in experiment [1], the Fold Increase stood at 1 fold and the Geo Mean Fluorescence was 3.5.

B1: ChimMNAC13 (antibody, V domains shown)
VH: EVKLMESGGGLVQPGGSLKLSCAASGFTFSTYTMSWARQTPEKRLEWVAYISKGGGSTYYPDTVKGRFTISRDNAKNTLYLQMSSLKSEDTALYYCARGAMYGNDFFYPMDYWGQQTSVTVSS
VL: DIVLSQSPAIMSASLGEEITLTCSASSSVSYMHWYQQKSGTSPKLLITTTSNLASGVPSRFSGSGSGTFYSLTISSVEAEDAADYYCHQWSSYPWTFGGGTKLEIK
notes: Corresponds to muMNACEP but has human constant regions instead of mouse constant regions; also called chimNINAC13; mVHEP/mVLEP
In experiment [2], B1 had a Kd of 0.151 nM. Besides, in experiment [3], the “Proliferation assay on TF1 cells IC50 (µg/ml), EXP-1” value (“Proliferation assay … EXP-1” for short) is 0.06 µg/mL and the “Proliferation assay on TF1 cells IC50 (µg/ml), EXP-2” value (from here on “Proliferation assay … EXP-2”) worked out at 0.58 µg/mL. In experiment [4], the “Fold Increase” value is 3.2 fold and the “Geo Mean Fluorescence” value stood at 11.

B2: BXhVH3VL3 (antibody, human IgG1, V domains shown)
VH: EVQLLESGGGLVQPGGSLRLSCAASGFTFSTYTMSWVRQAPGKRLEWVAYISKGGGSTYYPDTVKGRFTISRDNSKNTLYLQMNSLRAEDTAVYYCARGAMYGNDFFYPMDYWGQGTTVTVSS
VL: QIVLTQSPATLSLSPGERATLSCSASSSVSYMHWYQQKPGQSPRLLIYTTSNLASGIPSRFSGSGSGTFYTLTISSLEPEDFAVYYCHQWSSYPWTFGGGTKLEIK
notes: Human IgG1 constant regions (IgG1 expression vectors); also called hVH3/hVL3
In experiment [2], B2 showed a Kd of 1.45 nM, a koff of 0.000442 s⁻¹ and a kon of 325000 M⁻¹ s⁻¹. Moreover, in experiment [3], the “Proliferation assay … EXP-1” value is 0.41 µg/mL and the “Proliferation assay … EXP-2” value worked out at 2.38 µg/mL. Moreover, in experiment [4], the “Fold Increase” value came to 3.6 fold and the “Geo Mean Fluorescence” value came to 12.6.

B3: BXhVH5VL3 (antibody, human IgG1, V domains shown)
VH: EVKLLESGGGLVQPGGSLRLSCAASGFTFSTYTMSWVRQTPGKRLEWVAYISKGGGSTYYPDTVKGRFTISRDNSKNTLYLQMNSLRAEDTAVYYCARGAMYGNDFFYPMDYWGQGTTVTVSS
VL: QIVLTQSPATLSLSPGERATLSCSASSSVSYMHWYQQKPGQSPRLLIYTTSNLASGIPSRFSGSGSGTFYTLTISSLEPEDFAVYYCHQWSSYPWTFGGGTKLEIK
notes: Human IgG1 constant regions (IgG1 expression vectors); also called hVH5/hVL3
In experiment [2], B3 registered a Kd of 0.662 nM, a koff of 0.000638 s⁻¹ and an on-rate constant (kon) of 1e+06 M⁻¹ s⁻¹. Moreover, in experiment [3], the “Proliferation assay … EXP-1” value was 1.4 µg/mL and the “Proliferation assay … EXP-2” value came out at 1.21 µg/mL. For the same molecule, in experiment [4], the “Fold Increase” value was 3.9 fold and the “Geo Mean Fluorescence” value amounted to 13.7.

B4: HuMNACWO (antibody, V domains shown)
VH: EVQLLESGGGLVQPGGSLRLSCAASGFTFSTYTMSWARQAPGKGLEWVAYISKGGGSTYYPDTVKGRFTISRDNSKNTLYLQMNSLRAEDSAVYYCARGAMFGNDFFFPMDRWGQGTLVTVSS
VL: DIVLTQSPSSLSASVGDRVTITCSASSSVSYMHWYQQKPGQAPKLLIYTTSNLASGVPSRFSGSGSGTDYTLTISSLQPEDVATYYCHQWSSYPWTFGGGTKVEIK
notes: Prior art humanised antibody; also called humanised antibody MNAC13 disclosed in WO 05/061540; HuVHWO/HuVLWO
Regarding B4, in experiment [5], the Kd was 41.8 nM, the koff came out at 0.0309 s⁻¹ and the kon is 739000 M⁻¹ s⁻¹.

For the origin of these results see US20110145941A1 (LAY LINE GENOMICS S P A, published 2011).
